These results are taken from article PMC5292967, “New Insights on Signal Propagation by Sensory Rhodopsin II/Transducer Complex” (Scientific Reports, 2017).

The target in data set [1] is NpHtrII (Natronomonas pharaonis) (UniProt P42259). The following applies: cited from earlier work.
In data set [2] the target is T1, NpSRII/NpHtrII1-157 complex (sensory rhodopsin II with its cognate transducer) (Natronomonas pharaonis, UniProt P42196).
T1 construct: gene sop2; wild-type NpSRII with truncated transducer NpHtrII residues 1-157; produced in E. coli, reconstituted; 2:2 complex; with Sensory rhodopsin II transducer
T1 sequence (P42196 2-239): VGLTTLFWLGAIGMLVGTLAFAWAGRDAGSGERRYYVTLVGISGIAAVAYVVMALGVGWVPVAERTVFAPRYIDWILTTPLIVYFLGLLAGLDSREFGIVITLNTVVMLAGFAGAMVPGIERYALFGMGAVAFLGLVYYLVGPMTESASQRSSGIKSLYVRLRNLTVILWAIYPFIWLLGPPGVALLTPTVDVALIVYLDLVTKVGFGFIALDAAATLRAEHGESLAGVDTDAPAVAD
T1 sequence (P42259 1-157 partner): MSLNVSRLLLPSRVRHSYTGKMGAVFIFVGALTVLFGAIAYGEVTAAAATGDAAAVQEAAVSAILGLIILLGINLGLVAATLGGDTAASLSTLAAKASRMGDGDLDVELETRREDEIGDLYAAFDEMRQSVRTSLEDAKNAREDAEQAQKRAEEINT
Briefly: X-ray crystallography. It counts as binding. The following applies: ground state; space group I212121; 1.9 A; in meso crystals, pH 5.6; covalent (retinal Schiff base, Lys205).

Data set [3] deals with T2, NpSRII/NpHtrII1-135 complex (Natronomonas pharaonis, UniProt P42196).
T2 construct: gene sop2; wild-type NpSRII with truncated transducer NpHtrII residues 1-135; produced in E. coli, reconstituted; 2:2 complex; with Sensory rhodopsin II transducer
T2 sequence (P42196 2-239): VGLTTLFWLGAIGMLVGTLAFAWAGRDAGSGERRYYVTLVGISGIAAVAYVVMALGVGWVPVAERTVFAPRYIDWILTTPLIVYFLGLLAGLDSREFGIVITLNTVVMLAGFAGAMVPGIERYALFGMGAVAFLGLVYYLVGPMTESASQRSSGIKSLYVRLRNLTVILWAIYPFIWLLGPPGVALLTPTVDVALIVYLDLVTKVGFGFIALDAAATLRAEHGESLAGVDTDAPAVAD
T2 sequence (P42259 1-135 partner): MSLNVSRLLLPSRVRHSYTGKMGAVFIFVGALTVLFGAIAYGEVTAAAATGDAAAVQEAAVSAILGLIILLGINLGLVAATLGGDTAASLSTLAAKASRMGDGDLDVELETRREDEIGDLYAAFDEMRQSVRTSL
Briefly: X-ray crystallography. The following applies: ground state; covalent (retinal Schiff base, Lys205); retinal isomer not stated separately for this crystal. The data set is classed as binding.

For data set [4], the target named is T3, NpSRII/NpHtrII1-135 complex (Natronomonas pharaonis, UniProt P42196).
T3 construct: gene sop2; wild-type NpSRII with truncated transducer NpHtrII residues 1-135; produced in E. coli, reconstituted; 2:2 complex; with Sensory rhodopsin II transducer
Briefly: X-ray crystallography. The following applies: space group P21212; covalent (retinal Schiff base, Lys205); retinal isomer not stated separately for this crystal. It counts as binding.

The target of data set [5] is T1, NpSRII/NpHtrII1-157 complex (sensory rhodopsin II with its cognate transducer). Briefly: X-ray crystallography, trapped M intermediate. The data set is classed as binding. The following applies: active M state, light-induced; space group I212121; 1.9 A; covalent (retinal Schiff base, Lys205).
Data set [6] has as its target NpHtrII (Natronomonas pharaonis) (UniProt P42259). The conditions noted are these: cited from earlier work. This is another data set of the same source.
Data set [7] concerns the target T4, sensory rhodopsin II from N. pharaonis (NpSRII) (N. pharaonis, UniProt P42196 1-239, retinal bound through a Schiff base (Lys205)).
T4 construct: sensory rhodopsin II (NpSRII), N. pharaonis, wild type; also called the receptor; source: E. coli, purified, reconstituted into a functional complex, and resolubilized
T4 sequence (looked up): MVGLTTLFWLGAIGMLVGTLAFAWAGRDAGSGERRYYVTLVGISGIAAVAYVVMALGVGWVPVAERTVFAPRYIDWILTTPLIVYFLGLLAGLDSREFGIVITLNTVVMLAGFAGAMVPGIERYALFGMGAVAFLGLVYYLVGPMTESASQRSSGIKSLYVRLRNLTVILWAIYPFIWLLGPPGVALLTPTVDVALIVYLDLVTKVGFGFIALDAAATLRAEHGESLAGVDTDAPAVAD
As to the kind of experiment: crystal structure; ground state of the complex with NpHtrII 1-135 (PDB 5JJJ); in meso crystals; space group not tied to this entry in the text (P6_(4) likely). The conditions noted are these: both partners purified.

In data set [8] the target is T4, sensory rhodopsin II from N. pharaonis …. As to the kind of experiment: crystal structure; complex with the G83F mutant, space group P2_(1)2_(1)2, "V"-shape; crystallization conditions the same as for the wild type complex in the P6_(4) space group. The conditions noted are these: both partners purified.
Data set [9] concerns the molecule itself. As to the kind of experiment: crystal structure; ground state, space group I2_(1)2_(1)2_(1), 1.9 Å; in meso crystallization (monooleoyl), 22 °C, 1 M Na/K phosphate pH 5.6, trehalose.
Data set [10] deals with T4, sensory rhodopsin II from N. pharaonis …. The data set is described as above. The following applies: both partners purified.

Where two headings read alike, the source gives them in different places.

As for NpSRII (from UniProt P42196), the Kd – broadly, the equilibrium constant for the complex coming apart – in data set [1] was 0.1 µM.
As for `CC1=C(/C=C/C(C)=C/C=C/C(C)=C/C=O)C(C)(C)CCC1` [all-trans retinal], the X-ray crystallography result in data set [2] is “the retinal chromophore switches from all-trans conformation to 13-cis”; in data set [3] it was 5JJJ (NpSRII/HtrII-135 ground state); in data set [4], “crystal structure of the NpSRII/NpHtrII1–135-G83F mutant demonstrate different crystal packing”.
As to `CC1=C(/C=C/C(C)=C/C=C/C(C)=C\C=O)C(C)(C)CCC1` [13-cis retinal], in [5], the “X-ray crystallography, trapped M intermediate” value was “the retinal chromophore switches from all-trans conformation to 13-cis”.
In the case of “NpSRII (active state) (from UniProt P42196)”, in data set [6], the equilibrium dissociation constant (Kd) is 15 µM.

B1: NpHtrII_(1-135), shortened transducer (domain or fragment, N. pharaonis, UniProt P42259 1-135, looked up)
chain: MSLNVSRLLLPSRVRHSYTGKMGAVFIFVGALTVLFGAIAYGEVTAAAATGDAAAVQEAAVSAILGLIILLGINLGLVAATLGGDTAASLSTLAAKASRMGDGDLDVELETRREDEIGDLYAAFDEMRQSVRTSL
notes: source: E. coli, purified, reconstituted into a functional complex, and resolubilized
B1: the binding result in data set [7] is “binds”.

B2: NpHtrII_(1-135)-G83F mutant (domain or fragment, N. pharaonis, UniProt P42259 1-135, looked up)
chain: MSLNVSRLLLPSRVRHSYTGKMGAVFIFVGALTVLFGAIAYGEVTAAAATGDAAAVQEAAVSAILGLIILLGINLGLVAATLFGDTAASLSTLAAKASRMGDGDLDVELETRREDEIGDLYAAFDEMRQSVRTSL
notes: as for B1
With B2, in [8], the binding result is “binds”.

B3: NpHtrII_(1-157), shortened cognate transducer of NpSRII (domain or fragment, N. pharaonis, UniProt P42259 1-157, looked up)
chain: MSLNVSRLLLPSRVRHSYTGKMGAVFIFVGALTVLFGAIAYGEVTAAAATGDAAAVQEAAVSAILGLIILLGINLGLVAATLGGDTAASLSTLAAKASRMGDGDLDVELETRREDEIGDLYAAFDEMRQSVRTSLEDAKNAREDAEQAQKRAEEINT
notes: NpHtrII, transducer of sensory rhodopsin II, N. pharaonis, residues 1-157 (transmembrane helices TM1 and TM2, HAMP1 and linker); only the transmembrane part is seen in the electron density; also called HtrII-157; the transducer; source: E. coli, purified, reconstituted into a functional complex, and resolubilized
Take B3: the binding result in data set [9] and in [10] was “binds” each time.
